Results: patent US20210388087A1 (Chugai, published 2021)
Positions count from the first letter of the chain named.

B1: CE115HA000 A99K (antibody, human IgG1, kappa, L234A L235A, N297A, name in Kabat numbering)
heavy: QVQLVESGGGVVQPGRSLRLSCAASGFTFSNAWMHWVRQAPGKGLEWVAQIKAKSNNYATYYAESVKGRFTISRDDSKNSLYLQMNSLKTEDTAVYYCRYVHYGKYYGVDAWGQGTTVTVSSASTKGPSVFPLAPSSKSTSGGTAALGCLVKDYFPEPVTVSWNSGALTSGVHTFPAVLQSSGLYSLSSVVTVPSSSLGTQTYICNVNHKPSNTKVDKKVEPKSCDKTHTCPPCPAPEAAGGPSVFLFPPKPKDTLMISRTPEVTCVVVDVSHEDPEVKFNWYVDGVEVHNAKTKPREEQYASTYRVVSVLTVLHQDWLNGKEYKCKVSNKALPAPIEKTISKAKGQPREPQVYTLPPSRCELTKNQVSLSCAVKGFYPSDIAVEWESNGQPENNYKTTPPVLDSDGSFFLVSKLTVDKSRWQQGNVFSCSVMHEALHNHYTQKSLSLSPDYKDDDDK
chain: EPKSSDKTHTCPPCPAPELLGGPSVFLFPPKPKDTLMISRTPEVTCVVVDVSHEDPEVKFNWYVDGVEVHNAKTKPREEQYNSTYRVVSVLTVLHQDWLNGKEYKCKVSNKALPAPIEKTISKAKGQPREPQVCTLPPSRDELTKNQVSLWCLVKGFYPSDIAVEWESNGQPENNYKTTPPVLDSDGSFFLYSKLTVDKSRWQQGNVFSCSVMHEALHNRYTQKSLSLSP
light: DIVMTQSPLSLPVTPGEPASISCRSSQSLVHSNRNTYLHWYQQKPGQAPRLLIYKVSNRFSGVPDRFSGSGSGTDFTLKISRVEAEDVGVYYCGQGTQVPYTFGQGTKLEIKRTVAAPSVFIFPPSDEQLKSGTASVVCLLNNFYPREAKVQWKVDNALQSGNSQESVTEQDSKDSTYSLSSTLTLSKADYEKHKVYACEVTHQGLSSPVTKSFNRGEC
notes: one-arm antibody
B2: CE115HA000 A99L (antibody, human IgG1, kappa, L234A L235A, N297A, name in Kabat numbering)
heavy: B1 heavy with K105L
chain: B1 chain
light: B1 light
notes: one-arm antibody
B3: CE115HA000 A99Q (antibody, human IgG1, kappa, L234A L235A, N297A, name in Kabat numbering)
heavy: B1 heavy with K105Q
chain: B1 chain
light: B1 light
notes: one-arm antibody
B4: CE115HA000 A99S (antibody, human IgG1, kappa, L234A L235A, N297A, name in Kabat numbering)
heavy: B1 heavy with K105S
chain: B1 chain
light: B1 light
notes: one-arm antibody
B5: CE115HA000 A99T (antibody, human IgG1, kappa, L234A L235A, N297A, name in Kabat numbering)
heavy: B1 heavy with K105T
chain: B1 chain
light: B1 light
notes: one-arm antibody
B6: CE115HA000 A99Y (antibody, human IgG1, kappa, L234A L235A, N297A, name in Kabat numbering)
heavy: B1 heavy with K105Y
chain: B1 chain
light: B1 light
notes: one-arm antibody
B7: CE115HA000 A102I (antibody, human IgG1, kappa, L234A L235A, N297A, name in Kabat numbering)
heavy: B1 heavy with K105A, A111I
chain: B1 chain
light: B1 light
notes: one-arm antibody
B8: CE115HA000 A102P (antibody, human IgG1, kappa, L234A L235A, N297A, name in Kabat numbering)
heavy: B1 heavy with K105A, A111P
chain: B1 chain
light: B1 light
notes: one-arm antibody
B9: CE115HA000 A102V (antibody, human IgG1, kappa, L234A L235A, N297A, name in Kabat numbering)
heavy: B1 heavy with K105A, A111V
chain: B1 chain
light: B1 light
notes: one-arm antibody
B10: CE115HA000 A102Y (antibody, human IgG1, kappa, L234A L235A, N297A, name in Kabat numbering)
heavy: B1 heavy with K105A, A111Y
chain: B1 chain
light: B1 light
notes: one-arm antibody
B11: CE115HA000 D72A (antibody, human IgG1, kappa, L234A L235A, N297A, name in Kabat numbering)
heavy: B1 heavy with D75A, K105A
chain: B1 chain
light: B1 light
notes: one-arm antibody
B12: CE115HA000 D72E (antibody, human IgG1, kappa, L234A L235A, N297A, name in Kabat numbering)
heavy: B1 heavy with D75E, K105A
chain: B1 chain
light: B1 light
notes: one-arm antibody
B13: CE115HA000 D72V (antibody, human IgG1, kappa, L234A L235A, N297A, name in Kabat numbering)
heavy: B1 heavy with D75V, K105A
chain: B1 chain
light: B1 light
notes: one-arm antibody
B14: CE115HA000 D73A (antibody, human IgG1, kappa, L234A L235A, N297A, name in Kabat numbering)
heavy: B1 heavy with D76A, K105A
chain: B1 chain
light: B1 light
notes: one-arm antibody
B15: CE115HA000 D73E (antibody, human IgG1, kappa, L234A L235A, N297A, name in Kabat numbering)
heavy: B1 heavy with D76E, K105A
chain: B1 chain
light: B1 light
notes: one-arm antibody
B16: CE115HA000 D73G (antibody, human IgG1, kappa, L234A L235A, N297A, name in Kabat numbering)
heavy: B1 heavy with D76G, K105A
chain: B1 chain
light: B1 light
notes: one-arm antibody
B17: CE115HA000 D73K (antibody, human IgG1, kappa, L234A L235A, N297A, name in Kabat numbering)
heavy: B1 heavy with D76K, K105A
chain: B1 chain
light: B1 light
notes: one-arm antibody
B18: CE115HA000 D73N (antibody, human IgG1, kappa, L234A L235A, N297A, name in Kabat numbering)
heavy: B1 heavy with D76N, K105A
chain: B1 chain
light: B1 light
notes: one-arm antibody
B19: CE115HA000 D73R (antibody, human IgG1, kappa, L234A L235A, N297A, name in Kabat numbering)
heavy: B1 heavy with D76R, K105A
chain: B1 chain
light: B1 light
notes: one-arm antibody
B20: CE115HA000 D73T (antibody, human IgG1, kappa, L234A L235A, N297A, name in Kabat numbering)
heavy: B1 heavy with D76T, K105A
chain: B1 chain
light: B1 light
notes: one-arm antibody
B21: CE115HA000 D101A (antibody)
heavy: B1 heavy with K105A, D110A
Fc: B1 chain
light: B1 light
notes: one-arm antibody
B22: CE115HA000 D101F (antibody, human IgG1, kappa, L234A L235A, N297A, name in Kabat numbering)
heavy: B1 heavy with K105A, D110F
chain: B1 chain
light: B1 light
notes: one-arm antibody
B23: CE115HA000 D101G (antibody, human IgG1, kappa, L234A L235A, N297A, name in Kabat numbering)
heavy: B1 heavy with K105A, D110G
chain: B1 chain
light: B1 light
notes: one-arm antibody
B24: CE115HA000 D101H (antibody, human IgG1, kappa, L234A L235A, N297A, name in Kabat numbering)
heavy: B1 heavy with K105A, D110H
chain: B1 chain
light: B1 light
notes: one-arm antibody
B25: CE115HA000 D101I (antibody, human IgG1, kappa, L234A L235A, N297A, name in Kabat numbering)
heavy: B1 heavy with K105A, D110I
chain: B1 chain
light: B1 light
notes: one-arm antibody
B26: CE115HA000 D101K (antibody, human IgG1, kappa, L234A L235A, N297A, name in Kabat numbering)
heavy: B1 heavy with K105A, D110K
chain: B1 chain
light: B1 light
notes: one-arm antibody
B27: CE115HA000 D101L (antibody, human IgG1, kappa, L234A L235A, N297A, name in Kabat numbering)
heavy: B1 heavy with K105A, D110L
chain: B1 chain
light: B1 light
notes: one-arm antibody
B28: CE115HA000 D101M (antibody, human IgG1, kappa, L234A L235A, N297A, name in Kabat numbering)
heavy: B1 heavy with K105A, D110M
chain: B1 chain
light: B1 light
notes: one-arm antibody
B29: CE115HA000 D101N (antibody, human IgG1, kappa, L234A L235A, N297A, name in Kabat numbering)
heavy: B1 heavy with K105A, D110N
chain: B1 chain
light: B1 light
notes: one-arm antibody
B30: CE115HA000 D101P (antibody, human IgG1, kappa, L234A L235A, N297A, name in Kabat numbering)
heavy: B1 heavy with K105A, D110P
chain: B1 chain
light: B1 light
notes: one-arm antibody
B31: CE115HA000 D101Q (antibody, human IgG1, kappa, L234A L235A, N297A, name in Kabat numbering)
heavy: B1 heavy with K105A, D110Q
chain: B1 chain
light: B1 light
notes: one-arm antibody
B32: CE115HA000 D101R (antibody, human IgG1, kappa, L234A L235A, N297A, name in Kabat numbering)
heavy: B1 heavy with K105A, D110R
chain: B1 chain
light: B1 light
notes: one-arm antibody
B33: CE115HA000 D101S (antibody, human IgG1, kappa, L234A L235A, N297A, name in Kabat numbering)
heavy: B1 heavy with K105A, D110S
chain: B1 chain
light: B1 light
notes: one-arm antibody

These binders were tested against T1, CD3 epsilon homodimer protein (UniProt P07766 23-126) (assay: SPR, CD3 epsilon homodimer on chip, one-arm antibody as analyte;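 also: surface plasmon resonance at 25 °C with CD3 epsilon homodimer amine-coupled to a CM4 sensor chip, antibody injected as analyte, HBS-EP+ as running buffer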).
T1 construct: also called CD3 (CD3 epsilon)
T1 sequence (P07766 23-126): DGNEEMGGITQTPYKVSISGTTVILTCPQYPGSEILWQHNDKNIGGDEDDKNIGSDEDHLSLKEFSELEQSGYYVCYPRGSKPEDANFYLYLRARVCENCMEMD
With B1 the “KD ratio (KD of CE115HA000/KD of altered form)” value (“KD ratio” for short) was 1.4.
With B2 the “KD ratio” value was 1.
For B3, the “KD ratio” value was 0.85.
In the case of B4, the “KD ratio” value is reported as 0.76.
B5 was tested, and the “KD ratio” value was 0.93.
With B6 the “KD ratio” value was 1.25.
For B7, the “KD ratio” value was 1.29.
B8 was tested, and the “KD ratio” value was 3.51.
B9 was tested, and the “KD ratio” value was 1.27.
In the case of B10, the “KD ratio” value is reported as 1.
With B11 the “KD ratio” value was 1.19.
In the case of B12, the “KD ratio” value is reported as 0.73.
For B13, the “KD ratio” value was 1.17.
For B14, the “KD ratio” value was 0.73.
B15 was tested, and the “KD ratio” value was 0.56.
B16 was tested, and the “KD ratio” value was 0.78.
For B17, the “KD ratio” value was 0.74.
In the case of B18, the “KD ratio” value is reported as 0.7.
For B19, the “KD ratio” value was 0.79.
In the case of B20, the “KD ratio” value is reported as 0.78.
For B21, the “KD ratio” value was 0.86.
B22 was tested, and the “KD ratio” value was 0.73.
With B23 the “KD ratio” value was 3.16.
B24 was tested, and the “KD ratio” value was 0.91.
With B25 the “KD ratio” value was 1.73.
With B26 the “KD ratio” value was 4.37.
In the case of B27, the “KD ratio” value is reported as 0.71.
For B28, the “KD ratio” value was 1.94.
B29 was tested, and the “KD ratio” value was 2.28.
In the case of B30, the “KD ratio” value is reported as 43.4.
B31 was tested, and the “KD ratio” value was 3.55.
In the case of B32, the “KD ratio” value is reported as 5.56.
For B33, the “KD ratio” value was 0.91.
